Measured values: patent publication US5985836A, “Alpha-1 proteinase inhibitor binding peptides” (Bayer Corporation, priority 1998, dated 1999)
Ends that are not written are not given here.

Target: T1, A1PI (Homo sapiens, UniProt P01009)
T1 construct: Human plasma is currently the only approved source of therapeutic AlPI
Test: A1PI binding on peptide-resin column, injection of 1 mg A1PI in equilibration buffer
Conditions: for % of Total A1PI Eluted by Fraction (Based on Absorbance at 280 nm), 1M NaCl / % of Total A1PI Eluted by Fraction (Based on Absorbance at 280 nm), 2% Acetic Acid / % of Total A1PI Eluted by Fraction (Based on Absorbance at 280 nm), Flowthrough: 1 mg A1PI
Method: Confirmatory binding assays were performed in a column chromatographic format on a microbore HPLC using individual peptide sequences synthesized directly onto the Toyopearl 650 M Chelate resin which had been modified with Totda followed by an alanine residue (A-Totda-Toyopearl), at a final substitution density of 0.1 mmole/g resin. The resin was packed into 0.4×5 cm columns (Thomson, Springfield, Va.) and tested on the Michrom HPLC system (Michrom BioResources, Auburn, Calif.). The elution program for all trials utilized the following method. The column was pre-equilibrated with equilibration buffer (as above). 1 ml of sample was injected and allowed sufficient time to flowthrough the column using equilibration buffer. The column was then washed with step elutions of 1M NaCl and 3M NaCl in equilibration buffer. The column was exposed to equilibration buffer with 0.1M NaCl. Any remaining protein was eluted with elution buffer (2% by volume glacial acetic acid in water).
A Gilson FC204 fraction collector at the HPLC outlet collected individual eluates for further analysis. Fractions collected from the 2% acetic acid eluates were neutralized with 2M Tris, pH 10.5 to bring the pH to neutrality. The protein samples were reconstituted in equilibration buffer unless otherwise stated. The samples were analyzed by the integration of the absorbance at 280 nm or by immunonephelometry. The specific method of determination is presented for each figure.
Tables 2 and 3 present the elution profiles for 19 sequences based on the injection of 1 mg AlPI in equilibration buffer at 4° C. and 20° C., respectively. The columns were run at a constant flow rate of865 μl/min (413 cm/hr) or 523 μl/min (250 cm/hr). No dependence of the elution profile with flow rate was found. The Percent AlPI Eluted by Fraction represents the amount eluted in the flowthrough, 1M NaCl wash, and 2% acetic acid fractions relative to the total AlPI eluted. The percentages are based on either the integration of the peak areas at […]

[1] = 1 mg A1PI in equilibration buffer, 4° C.
[2] = 1 mg A1PI in equilibration buffer, 20° C.

T1 sequence (P01009 25-418): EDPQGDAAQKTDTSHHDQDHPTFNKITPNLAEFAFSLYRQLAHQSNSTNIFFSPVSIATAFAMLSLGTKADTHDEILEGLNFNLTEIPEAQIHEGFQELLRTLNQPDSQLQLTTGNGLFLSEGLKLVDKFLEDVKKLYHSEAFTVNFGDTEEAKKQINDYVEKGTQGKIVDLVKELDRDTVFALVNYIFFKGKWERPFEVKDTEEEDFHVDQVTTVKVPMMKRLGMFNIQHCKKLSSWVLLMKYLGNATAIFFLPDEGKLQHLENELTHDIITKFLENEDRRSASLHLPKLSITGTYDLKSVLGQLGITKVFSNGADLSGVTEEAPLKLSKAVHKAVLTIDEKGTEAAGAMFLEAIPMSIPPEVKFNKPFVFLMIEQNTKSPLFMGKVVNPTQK

% of Total A1PI Eluted by Fraction (Based on Absorbance at 280 nm), 1M NaCl (VIFLVR point mutations, 4° C.) [%]	% of Total A1PI Eluted by Fraction (Based on Absorbance at 280 nm), 2% Acetic Acid (VIFLVR point mutations, 4° C.) [%]	% of Total A1PI Eluted by Fraction (Based on Absorbance at 280 nm), Flowthrough (VIFLVR point mutations, 4° C.) [%]	% of Total A1PI Eluted by Fraction (Based on Absorbance at 280 nm), 1M NaCl (VIFLVR point mutations, 20° C.) [%]	% of Total A1PI Eluted by Fraction (Based on Absorbance at 280 nm), 2% Acetic Acid (VIFLVR point mutations, 20° C.) [%]	% of Total A1PI Eluted by Fraction (Based on Absorbance at 280 nm), Flowthrough (VIFLVR point mutations, 20° C.) [%]	Substance	other results
25	75	0	0	25	75	V I F L A R: point mutation of VIFLVR, position 5 (VIFLAR)	–
4	40	56	3	20	77	V I F L Y R: point mutation of VIFLVR, position 5 (VIFLYR)	–
66	34	0	49	51	0	V K F L V R: point mutation of VIFLVR, position 2 (VKFLVR)	–

The next lines start with the substance.

Substance	% of Total A1PI Eluted by Fraction (Based on Absorbance at 280 nm), 1M NaCl (VIFLVR point mutations, 4° C.) [%]	% of Total A1PI Eluted by Fraction (Based on Absorbance at 280 nm), 2% Acetic Acid (VIFLVR point mutations, 4° C.) [%]	% of Total A1PI Eluted by Fraction (Based on Absorbance at 280 nm), Flowthrough (VIFLVR point mutations, 4° C.) [%]	% of Total A1PI Eluted by Fraction (Based on Absorbance at 280 nm), 1M NaCl (VIFLVR point mutations, 20° C.) [%]	% of Total A1PI Eluted by Fraction (Based on Absorbance at 280 nm), 2% Acetic Acid (VIFLVR point mutations, 20° C.) [%]	% of Total A1PI Eluted by Fraction (Based on Absorbance at 280 nm), Flowthrough (VIFLVR point mutations, 20° C.) [%]	other results
V I F A V R: point mutation of VIFLVR, position 4 (VIFAVR)	46	54	0	11	89	0	–
V I F L F R: point mutation of VIFLVR, position 5 (VIFLFR)	3	56	40	–	–	–	–
V I R L V R: VIWLVR with Trp at position 3 replaced by Arg (VIRLVR)	–	–	–	–	–	–	% of Total A1PI Eluted by Fraction (Based on Absorbance at 280 nm), 1M NaCl (Trp position mutations, 4° C.): 90%; % of Total A1PI Eluted by Fraction (Based on Absorbance at 280 nm), 2% Acetic Acid (Trp position mutations, 4° C.): 10%; % of Total A1PI Eluted by Fraction (Based on Absorbance at 280 nm), Flowthrough (Trp position mutations, 4° C.): 0%; % of Total A1PI Eluted by Fraction (Based on Absorbance at 280 nm), 1M NaCl (Trp position mutations, 20° C.): 45%; % of Total A1PI Eluted by Fraction (Based on Absorbance at 280 nm), 2% Acetic Acid (Trp position mutations, 20° C.): 55%; % of Total A1PI Eluted by Fraction (Based on Absorbance at 280 nm), Flowthrough (Trp position mutations, 20° C.): 0%
V R F L V R: point mutation of VIFLVR, position 2 (VRFLVR)	39	61	0	–	–	–	–
VIFLVA: point mutation of VIFLVR, position 6, C-terminal Arg replaced with Ala	2	21	77	0	8	92	binding of AlPI (in words): little binding of AlPI
WSSKRY	–	–	–	–	–	–	Percent A1PI Eluted by Fraction Based on Absorbance at 280 nm, 1M NaCl [1]: 91%; Percent A1PI Eluted by Fraction Based on Absorbance at 280 nm, 2% Acetic Acid [1]: 9%; Percent A1PI Eluted by Fraction Based on Absorbance at 280 nm, Flowthrough [1]: 0%; Percent A1PI Eluted by Fraction, 1M NaCl [2]: 97%; Percent A1PI Eluted by Fraction, 2% Acetic Acid [2]: 3%; Percent A1PI Eluted by Fraction, Flowthrough [2]: 0%
